Values of other authors as cited in article PMC3078936.

Target: Bmf (Homo sapiens)
Conditions: cited from earlier work

Chain of DYNLL1 (P63167 whole entry): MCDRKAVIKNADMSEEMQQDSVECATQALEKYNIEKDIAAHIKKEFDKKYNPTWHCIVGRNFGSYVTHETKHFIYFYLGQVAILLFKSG

DYNLL1 (from UniProt P63167)
Kd: 750 nM
